This passage reports interaction score results from publication PMC10397247.

Read-outs that look alike come from different tables or passages of the source.

Assay in all cases: two-hybrid library CCmax;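 also: natural log of median RNA to DNA barcode read ratio; higher means stronger binding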
For one test, the target named is T1, 4H1310-AA.
T1 chain: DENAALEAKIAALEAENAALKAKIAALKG

The next test concerns the target T2, 4H1388-AA.
T2 chain: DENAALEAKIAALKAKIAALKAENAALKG
The note with it: mean of both orientations.

The target of the next test is T3, 4H1401-AA.
T3 chain: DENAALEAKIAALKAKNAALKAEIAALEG
The note with it: mean of both orientations.

A further test deals with T4, 4H1845-AA.
T4 chain: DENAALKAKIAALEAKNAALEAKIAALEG
The note with it: mean of both orientations.

In the next test the target is T5, 4H1874-AA.
T5 chain: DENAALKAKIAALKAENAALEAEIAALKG
The note with it: mean of both orientations.

A further test deals with T6, 4H2190-AA.
T6 chain: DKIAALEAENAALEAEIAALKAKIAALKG
The note with it: mean of both orientations.

Another test deals with T7, 4H2277-AA.
T7 chain: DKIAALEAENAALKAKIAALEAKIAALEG
The note with it: mean of both orientations.

The target of a further test is T8, 4H2354-AA.
T8 chain: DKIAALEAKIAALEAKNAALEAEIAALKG
The note with it: mean of both orientations.

The next test has as its target T9, 4H2505-AA.
T9 chain: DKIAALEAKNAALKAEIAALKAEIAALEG
The note with it: mean of both orientations.

For another test, the target named is T10, 4H2617-AA.
T10 chain: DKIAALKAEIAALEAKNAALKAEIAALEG
The note with it: mean of both orientations.

The target of a further test is T11, 4H2620-AA.
T11 chain: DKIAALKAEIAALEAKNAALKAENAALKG
The note with it: mean of both orientations.

Another test deals with T12, 4H2729-AA.
T12 chain: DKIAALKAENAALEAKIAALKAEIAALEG
The note with it: mean of both orientations.

The target of the next test is T13, 4H2754-AA.
T13 chain: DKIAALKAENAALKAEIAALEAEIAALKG
The note with it: mean of both orientations.

Another test addresses T14, 4H2944-AA.
T14 chain: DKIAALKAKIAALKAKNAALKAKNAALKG
The note with it: mean of both orientations.

In another test the target is T15, 4H2949-AA.
T15 chain: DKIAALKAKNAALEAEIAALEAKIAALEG
The note with it: mean of both orientations.

The target in the next test is T16, 4H3056-AA.
T16 chain: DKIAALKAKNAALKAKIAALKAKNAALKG
The note with it: mean of both orientations.

Another test has as its target T17, 4H3112-AA.
T17 chain: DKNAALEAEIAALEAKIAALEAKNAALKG
The note with it: mean of both orientations.

The target of another test is T18, 4H3133-AA.
T18 chain: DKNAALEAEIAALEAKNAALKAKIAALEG
The note with it: mean of both orientations.

A further test addresses T19, 4H3162-AA.
T19 chain: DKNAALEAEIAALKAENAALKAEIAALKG
The note with it: mean of both orientations.

A further test has as its target T20, 4H3343-AA.
T20 chain: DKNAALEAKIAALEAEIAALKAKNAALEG
The note with it: mean of both orientations.

For the next test, the target named is T21, 4H3378-AA.
T21 chain: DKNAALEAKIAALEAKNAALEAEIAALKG
The note with it: mean of both orientations.

A further test deals with T22, 4H340-AA.
T22 chain: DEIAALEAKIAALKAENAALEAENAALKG

In the next test the target is T23, 4H3588-AA.
T23 chain: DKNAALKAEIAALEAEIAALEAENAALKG

For another test, the target named is T24, 4H454-AA.
T24 chain: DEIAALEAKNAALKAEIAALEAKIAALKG
The note with it: mean of both orientations.

In a further test the target is T25, 4H678-AA.
T25 chain: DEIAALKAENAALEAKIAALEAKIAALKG
The note with it: mean of both orientations.

The target of the next test is T26, 4H1597-AA.
T26 chain: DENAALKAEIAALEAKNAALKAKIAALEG
The note with it: mean of both orientations.

Another test has as its target T27, 4H174-AA.
T27 chain: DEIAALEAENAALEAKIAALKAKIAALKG
The note with it: mean of both orientations.

For another test, the target named is T28, 4H2162-AA.
T28 chain: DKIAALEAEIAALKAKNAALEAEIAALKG
The note with it: mean of both orientations.

For DENAALEAENAALEAEIAALEAEIAALEG [4H1153-AA], the interaction score with 4H1310-AA (mean of both orientations) was -1.28; with 4H1388-AA, 0.435; in the test with 4H1401-AA it was -0.873; in the test with 4H1845-AA it was -1.27; in the test with 4H1874-AA it was -1.61; with 4H2190-AA, -0.187. For the same molecule, the interaction score is -1.07 with 4H2277-AA; -1.55 with 4H2354-AA; 0.301 with 4H2505-AA; -2.01 with 4H2617-AA; -1.41 with 4H2620-AA; 0.0308 in the test with 4H2729-AA. Further, the interaction score with 4H2754-AA is -0.638; in the test with 4H2944-AA it was -0.0983; with 4H2949-AA it was -0.947; with 4H3056-AA it was 1.46; with 4H3112-AA it was -2.33; with 4H3133-AA it was -2.15. The interaction score was -1.68 in the test with 4H3162-AA; -0.81 in the test with 4H3343-AA; -1.72 with 4H3378-AA; -1.49 in the test with 4H340-AA; -1.29 in the test with 4H3588-AA (mean of both orientations); 0.894 in the test with 4H454-AA. The molecule further yielded an interaction score with 4H678-AA of -0.487.

On to DENAALEAKIAALEAENAALKAKIAALKG [4H1310-AA], for which the interaction score with 4H1310-AA was 1.62; with 4H1388-AA it was -1.2; with 4H1401-AA, 1.11; in the test with 4H1597-AA, 0.746; in the test with 4H174-AA it was 0.83; with 4H1845-AA, -0.784. The interaction score was 2.14 in the test with 4H1874-AA; -0.945 in the test with 4H2162-AA; -1.03 with 4H2620-AA; -1.47 with 4H3056-AA; 0.253 with 4H3133-AA; -0.508 in the test with 4H3162-AA. The figures for the interaction score in the test with 4H3378-AA, in the test with 4H340-AA (mean of both orientations) and in the test with 4H3588-AA (mean of both orientations) were -0.0826, -1.45 and -1.22, respectively.

Take DENAALEAEIAALKAKNAALEAKIAALKG [4H1142-AA]: the interaction score with 4H1310-AA (mean of both orientations) is -1.26; in the test with 4H1388-AA, -1.65; in the test with 4H1401-AA, 0.545; with 4H1597-AA it was 0.572; in the test with 4H174-AA, -0.4; with 4H1845-AA it was -0.689. Moreover, the interaction score in the test with 4H1874-AA is 0.966; in the test with 4H2162-AA, 0.00334; with 4H2620-AA, -1.34; with 4H3056-AA, -1.15; with 4H3133-AA, -0.11; in the test with 4H3162-AA, -1.46. Further, the interaction score in the test with 4H3378-AA was -0.868; in the test with 4H340-AA (mean of both orientations), -1.35; with 4H3588-AA, -1.17.
